Test results published in PMC10373098 (Nature structural & molecular biology, 2022).

T1: RhCE (human (endogenous in erythrocytes), UniProt P18577 1-417)
T1 sequence (looked up): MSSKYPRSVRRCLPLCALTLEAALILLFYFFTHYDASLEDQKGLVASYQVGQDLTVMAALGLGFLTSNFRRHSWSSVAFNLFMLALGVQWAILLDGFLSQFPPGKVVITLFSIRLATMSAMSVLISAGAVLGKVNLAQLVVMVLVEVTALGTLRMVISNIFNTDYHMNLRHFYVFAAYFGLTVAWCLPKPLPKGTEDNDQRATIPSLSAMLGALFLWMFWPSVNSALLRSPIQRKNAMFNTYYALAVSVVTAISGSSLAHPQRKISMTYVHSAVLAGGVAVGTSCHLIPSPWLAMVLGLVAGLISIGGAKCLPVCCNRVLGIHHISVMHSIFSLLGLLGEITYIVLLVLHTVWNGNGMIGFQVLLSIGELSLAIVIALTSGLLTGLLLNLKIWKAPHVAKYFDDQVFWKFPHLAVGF

T2: band 3 anion exchanger (human (endogenous in erythrocytes), UniProt P02730 1-911)
T2 sequence (looked up): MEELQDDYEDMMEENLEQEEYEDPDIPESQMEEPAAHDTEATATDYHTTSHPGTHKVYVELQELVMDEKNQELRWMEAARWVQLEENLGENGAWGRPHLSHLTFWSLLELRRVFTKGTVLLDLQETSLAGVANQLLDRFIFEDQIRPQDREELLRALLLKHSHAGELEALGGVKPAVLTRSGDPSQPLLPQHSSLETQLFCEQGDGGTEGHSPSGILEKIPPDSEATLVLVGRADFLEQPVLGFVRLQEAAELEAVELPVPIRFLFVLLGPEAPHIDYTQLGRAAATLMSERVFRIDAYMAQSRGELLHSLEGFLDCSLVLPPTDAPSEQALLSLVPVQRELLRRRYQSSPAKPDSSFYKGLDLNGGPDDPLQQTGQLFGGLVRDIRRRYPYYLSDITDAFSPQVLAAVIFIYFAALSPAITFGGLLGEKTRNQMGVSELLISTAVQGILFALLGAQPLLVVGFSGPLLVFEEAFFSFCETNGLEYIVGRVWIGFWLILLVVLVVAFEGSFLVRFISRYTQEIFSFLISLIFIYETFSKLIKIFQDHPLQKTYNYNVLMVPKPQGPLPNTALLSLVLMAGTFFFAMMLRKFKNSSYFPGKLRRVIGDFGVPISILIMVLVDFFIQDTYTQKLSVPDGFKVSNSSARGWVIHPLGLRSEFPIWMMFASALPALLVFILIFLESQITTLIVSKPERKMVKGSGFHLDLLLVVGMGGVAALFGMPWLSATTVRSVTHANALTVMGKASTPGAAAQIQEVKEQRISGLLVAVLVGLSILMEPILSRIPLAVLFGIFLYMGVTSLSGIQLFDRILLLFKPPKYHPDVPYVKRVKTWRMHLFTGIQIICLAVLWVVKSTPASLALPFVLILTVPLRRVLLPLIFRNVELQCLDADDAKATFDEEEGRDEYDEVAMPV

B1: RhAG (natural protein, human (endogenous in erythrocytes), UniProt Q02094 1-409, looked up)
chain: MRFTFPLMAIVLEIAMIVLFGLFVEYETDQTVLEQLNITKPTDMGIFFELYPLFQDVHVMIFVGFGFLMTFLKKYGFSSVGINLLVAALGLQWGTIVQGILQSQGQKFNIGIKNMINADFSAATVLISFGAVLGKTSPTQMLIMTILEIVFFAHNEYLVSEIFKASDIGASMTIHAFGAYFGLAVAGILYRSGLRKGHENEESAYYSDLFAMIGTLFLWMFWPSFNSAIAEPGDKQCRAIVNTYFSLAACVLTAFAFSSLVEHRGKLNMVHIQNATLAGGVAVGTCADMAIHPFGSMIIGSIAGMVSVLGYKFLTPLFTTKLRIHDTCGVHNLHGLPGVVGGLAGIVAVAMGASNTSMAMQAAALGSSIGTAVVGGLMTGLILKLPLWGQPSDQNCYDDSVYWKVPKTR
B2: protein 4.2 (natural protein, human (endogenous in erythrocytes), UniProt P16452 1-691, looked up)
chain: MGQALGIKSCDFQAARNNEEHHTKALSSRRLFVRRGQPFTIILYFRAPVRAFLPALKKVALTAQTGEQPSKINRTQATFPISSLGDRKWWSAVVEERDAQSWTISVTTPADAVIGHYSLLLQVSGRKQLLLGQFTLLFNPWNREDAVFLKNEAQRMEYLLNQNGLIYLGTADCIQAESWDFGQFEGDVIDLSLRLLSKDKQVEKWSQPVHVARVLGALLHFLKEQRVLPTPQTQATQEGALLNKRRGSVPILRQWLTGRGRPVYDGQAWVLAAVACTVLRCLGIPARVVTTFASAQGTGGRLLIDEYYNEEGLQNGEGQRGRIWIFQTSTECWMTRPALPQGYDGWQILHPSAPNGGGVLGSCDLVPVRAVKEGTLGLTPAVSDLFAAINASCVVWKCCEDGTLELTDSNTKYVGNNISTKGVGSDRCEDITQNYKYPEGSLQEKEVLERVEKEKMEREKDNGIRPPSLETASPLYLLLKAPSSLPLRGDAQISVTLVNHSEQEKAVQLAIGVQAVHYNGVLAAKLWRKKLHLTLSANLEKIITIGLFFSNFERNPPENTFLRLTAMATHSESNLSCFAQEDIAICRPHLAIKMPEKAEQYQPLTASVSLQNSLDAPMEDCVISILGRGLIHRERSYRFRSVWPENTMCAKFQFTPTHVGLQRLTVEVDCNMFQNLTNYKSVTVVAPELSA
modifications: N-terminal glycine myristoylated
B3: glycophorin A (natural protein, human (endogenous in erythrocytes), UniProt P02724 20-150, looked up)
chain: LSTTEVAMHTSTSSSVTKSYISSQTNDTHKRDTYAATPRAHEVSEISVRTVYPPEEETGERVQLAHHFSEPEITLIIFGVMAGVIGTILLISYGIRRLIKKSPSDVKPLPSPDTDVPLSSVEIENPETSDQ
B4: aquaporin-1 (natural protein, human (endogenous in erythrocytes), UniProt P29972 1-269, looked up)
chain: MASEFKKKLFWRAVVAEFLATTLFVFISIGSALGFKYPVGNNQTAVQDNVKVSLAFGLSIATLAQSVGHISGAHLNPAVTLGLLLSCQISIFRALMYIIAQCVGAIVATAILSGITSSLTGNSLGRNDLADGVNSGQGLGIEIIGTLQLVLCVLATTDRRRRDLGGSAPLAIGLSVALGHLLAIDYTGCGINPARSFGSAVITHNFSNHWIFWVGPFIGGALAVLIYDFILAPRSSDLTDRVKVWTSGQVEEYDLDADDINSRVEMKPK
modifications: lipid-like density attached to Cys-87, assigned as a palmitoylation site

Key:
Experiment in all cases: cryo-EM structure
RhCE = target: T1, RhCE
cryo-EM structure = target: the molecule itself
band 3 anion exchanger [1] = target: T2, band 3 anion exchanger
band 3 anion exchanger [2] = target: T2, band 3 anion exchanger; remark: listed apart in the source
protein 4.2 = target: B2

Binder: B1
stoichiometry N (RhCE): 2 RhAG per RhCE
binding result (cryo-EM structure): binds

Binder: B2
binding result (band 3 anion exchanger [1]): binds

Binder: B3
stoichiometry N (band 3 anion exchanger [2]): 1 GPA per band 3 protomer

Binder: B4
binding result (protein 4.2): binds
